{"source": "paper PMC2583301", "about": "(The Journal of Biological Chemistry, 2008)", "binders": {"B1": {"name": "yNap1 C200A/C249A/C272A labelled with Alexa dye at Cys-414 (yNap1m*) (natural protein)", "chain": "MSDPIRTKPKSSMQIDNAPTPHNTPASVLNPSYLKNGNPVRAQAQEQDDKIGTINEEDILANQPLLLQSIQDRLGSLVGQDSGYVGGLPKNVKEKLLSLKTLQSELFEVEKEFQVEMFELENKFLQKYKPIWEQRSRIISGQEQPKPEQIAKGQEIVESLNETELLVDEEEKAQNDSEEEQVKGIPSFWLTALENLPIVADTITDRDAEVLEYLQDIGLEYLTDGRPGFKLLFRFDSSANPFFTNDILAKTYFYQKELGYSGDFIYDHAEGAEISWKDNAHNVTVDLEMRKQRNKTTKQVRTIEKITPIESFFNFFDPPKIQNEDQDEELEEDLEERLALDYSIGEQLKDKLIPRAVDWFTGAALEFEFEEDEEEADEDEDEEEDDDHGLEDDDGESAEEQDDFAGRPEQAPECKQS", "modifications": "Alexa-546 or Alexa-488 on Cys-414"}, "B2": {"name": "yeast nucleosome assembly protein 1 (yNap1), wild type (natural protein)", "chain": "B1 chain with A200C, A249C, A272C"}}, "key": {"[1]": {"target": "T1, H2A/H2B dimer (major type, wild type) (Xenopus laevis, UniProt P06897;P02281)", "experiment": "other fluorescence titration"}, "[2]": {"target": "T1, H2A/H2B dimer (major type, wild type)", "experiment": "other fluorescence titration", "remark": "listed apart in the source"}, "[3]": {"target": "H2A refolded in the absence of H2B (Xenopus laevis, UniProt P06897 1-130)", "experiment": "other fluorescence titration"}, "[4]": {"target": "H2A.Z/H2B dimer ( | Xenopus laevis, UniProt P0C0S5;P02281)", "experiment": "other fluorescence titration"}, "[5]": {"target": "H3 alone (Xenopus laevis, UniProt P84233 1-136)", "experiment": "other fluorescence titration"}, "[6]": {"target": "T1, H2A/H2B dimer (major type, wild type)", "experiment": "other fluorescence titration", "remark": "listed apart in the source"}, "[7]": {"target": "T1, H2A/H2B dimer (major type, wild type)", "experiment": "other fluorescence titration", "remark": "listed apart in the source"}, "[8]": {"target": "T1, H2A/H2B dimer (major type, wild type)", "experiment": "native gel or EMSA"}}, "note": "Where a chain is given by its changes, count along the chain named. Names may count otherwise. Where two headings read alike, the source gives them in different places."}
{"binder": "B1", "values": [{"measurement": "Kd", "setting": "[1]", "result": 7.8, "unit": "nM"}, {"measurement": "Kd", "setting": "[2]", "result": 7.8, "unit": "nM"}, {"measurement": "Kd", "setting": "[3]", "result": 3.5, "unit": "nM"}, {"measurement": "Kd", "setting": "[4]", "result": 7.4, "unit": "nM"}, {"measurement": "Kd", "setting": "[5]", "result": "> 10000", "unit": "nM"}, {"measurement": "Kd", "setting": "[6]", "result": 1.2, "unit": "nM"}, {"measurement": "Kd", "setting": "[7]", "result": 21.6, "unit": "nM"}]}
{"binder": "B2", "values": [{"measurement": "binding result", "setting": "[8]", "result": "binds"}]}
